The values that follow come from a protein production outcome set (Wang et al. 2014).
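Further: failed if final PepcDB status was selected cloned or expressed and not failed if soluble or beyond.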

This data set is described as follows: label from the status in PepcDB records.
For “MRRSFLKTIGLGVIALFLGLLNPLSAASYPPIKNTKVGLALSSHPLASEIGQKVLEEGGNAIDAAVAIGFALAVVHPAAGNIGGGGFAVIHLANGENVALDFREKAPLKATKNMFLDKQGNVVPKLSEDGYLAAGVPGTVAGMEAMLKKYGTKKLSQLIDPAIKLAENGYAISQRQAETLKEARERFLKYSSSKKYFFKKGHLDYQEGDLFVQKDLAKTLNQIKTLGAKGFYQGQVAELIEKDMKKNGGIITKEDLASYNVKWRKPVVGSYRGYKIISMSPPSSGGTHLIQILNVMENADLSALGYGASKNIHIAAEAMRQAYADRSVYMGDADFVSVPVDKLINKAYAKKIFDTIQPDTVTPSSQIKPGMGQLHEGSNTTHYSVADRWGNAVSVTYTINASYGSAASIDGAGFLLNNEMDDFSIKPGNPNLYGLVGGDANAIEANKRPLSSMSPTIVLKNNKVFLVVGSPGGSRIITTVLQVISNVIDYNMNISEAVSAPRFHMQWLPDELRIEKFGMPADVKDNLTKMGYQIVTKPVMGDVNAIQVLPKTKGSVFYGSTDPRKEF”, the protein production result is on record as “failed”.

“MRRSFYHYLMTLKGPAKDSETDFANEAAKDIQFPKQTEDYHELSSYLEMNADYLSNMDIFDELWEKYLENNKLEHHHHHH”: the protein production result is reported as “not failed”.

Regarding “MRRSKADVERYIASVQGSAPSPREKSMKGFYFAKLYYEAKEYDLAKKYISTYINVQERDPKAHRFLGLLYEVEENIDKAVECYKRSVELNPTQKDLVLKIAELLCKNDVTDGRAKYWVERAAKLFPGSPAIYKLKEQLLDCKGEDGWNKLFDLIQSELYARPDDIHVNIRLVELYRSNKRLKDAVAHCHEADRNTALRSSLEWNLCVVQTLKEYLESLQCLDSDKSTWRATNKDLLLAYANLMLLTLSTRDVQEGRELLESFDSALQSVKSSVGGNDELSATFLETKGHFYMHVGSLLLKMGQQSDIQWRALSELAALCYLVAFQVPRPKVKLIKGEAGQNLLETMAHDRLSQSGHMLLNLSRGKQDFLKEVVESFANKSGQSALCDALFSSQSSKERSFLGNDDIGNLDGQVPDPDDLARYDTGAVRAHNGSLQHLTWLGLQWNSLSTLPAIRKWLKQLFHHLPQETSRLETNAPESICILDLEVFLLGVIYTSHLQLKEKCNSHHTSYQPLCLPLPVCRQLCTERQKTWWDAVCTLIHRKALPGTSAKLRLLVQREINSLRGQEKHGLQPALLVHWAQSLQKTGSSLNSFYDQREYIGRSVHYWRKVLPLLKMIRKKNSIPEPIDPLFKHFHSVDIQASEIGEYEEDAHITFAILDAVNGNIEDAMTAFESIKNVVSYWNLALIFHRKAEDIENDALSPEEQEECKNYLRKTRDYLIRILDDSDSNTSVVQKLWYISKQQKFGIWGWEDCTSVRV”, the protein production entry is “failed”.

With “MRRTLVVPDVLLLGTLLAGLLLLSGCEGDYRPRAVGPIGEITVVMDSSHWTGPSGEALRANVTPWVETLPVSERSFQLRHLELTDERTYERVQDLKNVIIAAPLSDSTNETSFLRRRLSDEAEQAILDGQTAVVPKPNLWRRSQRIYYVAAASPDALAETFQSQGTQIRDTFTEATLQRMDRNMYEDDRRSALEDTLMQRHGFAVNMQSDFQIAVDTTTGSEGFVWLRRLLAQTRREFFVYYVEDVSPDQITPEWIYNTRDSLTRRHLRGNVRGFAKIDYRRPLKTEQRSFLDRYAYDSRGLWYMVAPLGGGNELRPVGGGGPFVNYTFYDQATDRVYMLDGSIFAPDNDKIDLLRQMEVMARTFRTAEGSRSPDASPTAAKLEHHHHHH”, the protein production entry is given as “failed”.

As for “MRSAAVLALLLCAGQVTALPVNSPMNKGDTEVMKCIVEVISDTLSKPSPMPVSQECFETLRGDERILSILRHQNLLKELQDLALQGAKERAHQQKKHSGFEDELSEVLENQSSQAELKEAVEEPSSKDVMEKREDSKEAEKSGEATDGARPQALPEPMQESKAEGNNQAPGEEEEEEEEATNTHPPASLPSQKYPGPQAEGDSEGLSQGLVDREKGLSAEPGWQAKREEEEEEEEEAEAGEEAVPEEEGPTVVLNPHPSLGYKEIRKGESRSEALAVDGAGKPGAEEAQDPEGKGEQEHSQQKEEEEEMAVVPQGLFRGGKSGELEQEEERLSKEWEDSKRWSKMDQLAKELTAEKRLEGQEEEEDNRDSSMKLSFRARAYGFRGPGPQLRRGWRPSSREDSLEAGLPLQVRGYPEEKKEEEGSANRRPEDQELESLSAIEAELEKVAHQLQALRRG”, the protein production entry is “failed”.

Regarding “MRSAGEPRWVVPILASPLLWHAARFALVSAYLLGGVVKLFDFAAAVAEQERFGLHPGWLWATLAIVVELGGSLLVLADRLVWLGAGALGVLTFVAMLTANAFWSAPAADRWIQANAFFEHFGLIAGFVLLAMLSDQRRSTS”, the protein production entry was “failed”.

With “MRSSDILIVDDEVGIRDLLSEILQDEGYSVALAENAEEARKLRHQARPAMVLLDIWMPDCDGITLLKEWAKNGQLNMPVVVMSGHASIDTAVEATKIGAIDFLEKPISLQKLLSAVENALKHGAAQIETGPVFDKLGNSAAIQEMNREVEAAAKRTSPVFLTGEAGSPFETVARYFHKNGTPWVSPARVEYLIDMPMELLQKAEGGVLYVGDIAQYSRNIQTGITFIIGKAERCRVRVIASCSYAAGSDGISCEEKLAGLFSESVVRIPPLSMQHEDIPFLIQGIACNVAESQKITPTAFSDDALAVLSRYDWPGNFEQLQNVVTTLLLEADGQEIGIGAASSALGRGVPADGTGHMACGFDFNLPLRELREEVERRYFEYHIAQEGQNMSKVAQKVGLERTHLYRKLKQLGIGVSRRAGEKTEE”, the protein production entry was “not failed”.

In the case of “MRSSQAIDFERIPEMEDKWRKEITAMTVTLQDKRKAIQNDEILRGVHPKSHGCLDAEFTVNRDIAPQFQVGLFAQPGKCFRARIRYSNADVLKRADLEKGQDATGARFLNHGSRGMAIKVLDVGAPVLLEDGCARNQDFLMVNTPEFAFRNVRDYLRLTKALCASADGADPLLFFLPGELLKRGMMDMSGSLLPAPAGEPPQNAGLRALFEANRAFFDDFDAEDMQGVISAAGVVGKIQSTPVRNPLFAPYFSAASFRFGKDRVMRFSVVPLQSEEMAADMASDAFEDFSDDYLSQALALSVATNEPIKLSFRIQIAHEEDIVNDIDGMIENAAKTWDEDQFSHTEVAQITINPPCPSAELVDTCKPLLFTPWHAVVDFEPLGGINRLRKPVYSTSAAFRRSVLEHHHHHH”, the protein production result is “failed”.

For the sequence “MRSSQGSGADPGARGRVDQRLRRGARPAPTSPHSPAKTNHPLRAAIIGGGPGGLYTAALLKRLAPDREVTVYERNAPDDTFGFGVVLSDETLGGIEHADPTVYEALKAHFVRWDDIDIVHRHTRHTSGGHRFAALGRRRLLEILHDRCRDLGVELRFRTEAPPPDRLARTHDLVVAADGVHSATREAYRDVFRPRLTPHRCRYIWLAADFAFDAFRFEIAETEHGVMQLHGYPFAPDASTVIVEMREEVWRAAGFDELDETESTARCAKIFADALGGRPLRSNKSAWTTFRTVVNERWSHGNIVLLGDAAHTAHFSIGSGTKLAVEDALALAACLAERPTLQEALTAYEEERRPVVASTQRAAKASLEWFEDLDRYLAQPPRQFAFNLLTRSRRVTHENLRLRDAGFTESVEREFGCPPDTPPMFTPFRLRGLTLRNRVVVSPMDMYSATDGVPGDFHLVHLGARALGGAALVMTEMVCVSAEGRITPGCAGLYTGRQGEAWRRITDFVHDGAPGTAIGVQLGHSGRKGSTRLMWEGMDEPLPDGNWPLVAPSPLPYRPGGQVPRELSRAQLADVREQFRAAAERAAGAGFDLLELHCAHGYLLSGFLSPLTNHRTDAYGGSPENRLRFPLEVFDAVREVWPDERPMTVRISATDWAEGGTSAEEAVEIARAFAAHGADAIDVSTGQVVSGERPEFGRSYQTPYADRIRHEAGVPVIAVGAISSWDDVNSLVLAGRTDLCALARPHLYDPHWTLHAAAEQGYDGPGARWPAPYRAGSRPPRTGRTDAPRPRLTLHGPGQDG”, the protein production result is recorded as “failed”.

On to “MRSSSSSSVLPSLPNARLRRPAVWIAFLAVAALSLTGCDLFGSNDDEGRRVTTDVVIANSGNFSAQDGSLTLYNPTASTATLKDIEVAFINSLAQHNGRLFVVDNTTSDNAGKITTFDTEQLGPVDQITNLQRSPRRIAFPEENKGYVTNLSRDLDDAPSNFVPDTSTVSVVDLEADSVTKRVDVGRSPEGIAAVARKAFVANSADGTLSVLDAGADTVNTTLSLPDCANPKSVFVDDENEVAVVCQGGGEQASEVLFLSPIEETIKDRVELGAPIGSANGSQSAYYSEGAEELYTISGSQAFGGNGTGEIFRIDTNANALDATLEIPQDDGLIGITAVGYDDVTQDLYVTRLPVGAGGFPLFSANGTALVLDRQGNEVTRFETGNSPGHITFLGDRQ”, for which the protein production result was “failed”.
